Laboratory results published in patent publication US20210145944.

How the values were obtained:
[1] = tested on: Bodipy-labelled casein
[2] = biological target: Tau-410 (UniProt P10636)
[3] = biological target: Tau-441 (P301L) (UniProt P10636)
[4] = biological target: p-Tau-441 (UniProt P10636)
[5] = biological target: α-synuclein (UniProt P37840)
[6] = tested on: T1, Boc-QAR-AMC (ES014)
T1 sequence: QAR

Chain of Tau-410 (P10636 other isoform, or with tags, fused parts or gaps): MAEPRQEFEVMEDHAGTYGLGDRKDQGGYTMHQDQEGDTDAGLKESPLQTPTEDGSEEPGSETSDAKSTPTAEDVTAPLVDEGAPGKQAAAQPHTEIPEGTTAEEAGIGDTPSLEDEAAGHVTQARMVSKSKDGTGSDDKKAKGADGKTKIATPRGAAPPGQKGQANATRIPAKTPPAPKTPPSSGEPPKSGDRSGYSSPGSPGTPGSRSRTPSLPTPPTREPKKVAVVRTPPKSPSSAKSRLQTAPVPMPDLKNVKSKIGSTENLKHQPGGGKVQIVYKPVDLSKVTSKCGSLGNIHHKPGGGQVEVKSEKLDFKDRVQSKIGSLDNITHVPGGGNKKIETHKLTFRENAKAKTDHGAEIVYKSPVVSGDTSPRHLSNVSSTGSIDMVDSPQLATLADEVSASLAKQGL
Chain of Tau-441 (P301L) (P10636 other isoform, or with tags, fused parts or gaps P301L): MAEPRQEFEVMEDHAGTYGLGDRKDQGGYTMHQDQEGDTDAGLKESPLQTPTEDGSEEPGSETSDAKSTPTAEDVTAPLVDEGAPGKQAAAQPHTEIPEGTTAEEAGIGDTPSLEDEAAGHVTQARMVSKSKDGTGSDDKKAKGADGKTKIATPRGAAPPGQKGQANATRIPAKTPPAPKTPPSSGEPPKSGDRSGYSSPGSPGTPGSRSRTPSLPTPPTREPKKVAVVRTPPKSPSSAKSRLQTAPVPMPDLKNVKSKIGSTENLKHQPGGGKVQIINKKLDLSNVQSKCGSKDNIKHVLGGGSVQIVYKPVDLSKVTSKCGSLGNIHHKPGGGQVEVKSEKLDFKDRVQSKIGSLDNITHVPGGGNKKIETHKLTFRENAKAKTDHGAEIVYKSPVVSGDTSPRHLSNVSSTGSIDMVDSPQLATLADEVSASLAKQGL
Chain of p-Tau-441 (P10636 whole entry, looked up): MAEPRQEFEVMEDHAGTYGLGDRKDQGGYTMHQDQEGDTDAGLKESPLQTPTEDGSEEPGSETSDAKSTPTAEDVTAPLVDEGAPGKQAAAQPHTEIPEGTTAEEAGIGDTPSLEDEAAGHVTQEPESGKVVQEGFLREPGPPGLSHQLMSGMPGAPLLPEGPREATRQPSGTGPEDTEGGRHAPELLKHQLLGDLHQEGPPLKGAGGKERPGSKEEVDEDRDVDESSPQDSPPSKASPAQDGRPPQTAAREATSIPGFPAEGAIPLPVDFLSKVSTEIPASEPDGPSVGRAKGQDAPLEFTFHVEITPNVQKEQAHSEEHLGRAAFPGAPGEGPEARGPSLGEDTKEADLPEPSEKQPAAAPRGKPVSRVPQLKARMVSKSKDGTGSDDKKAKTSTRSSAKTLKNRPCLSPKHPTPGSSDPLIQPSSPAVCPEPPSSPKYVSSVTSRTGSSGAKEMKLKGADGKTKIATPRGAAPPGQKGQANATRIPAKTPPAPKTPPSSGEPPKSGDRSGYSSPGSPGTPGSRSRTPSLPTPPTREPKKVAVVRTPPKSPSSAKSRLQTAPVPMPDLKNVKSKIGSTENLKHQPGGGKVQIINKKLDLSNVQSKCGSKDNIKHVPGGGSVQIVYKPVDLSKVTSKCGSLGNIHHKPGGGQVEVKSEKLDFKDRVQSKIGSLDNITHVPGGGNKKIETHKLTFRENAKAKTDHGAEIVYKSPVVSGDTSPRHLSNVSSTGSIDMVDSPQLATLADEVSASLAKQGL

In the case of Cathepsin D resin, the “casein digestion by resin-immobilized protease, RFU over time” value (“casein digestion … RFU over time” for short) [1] is reported as “no signal: the line falls from 0 to about -6000 RFU at 120 min, at or below the control resin (about 0) over the whole time range”.
For elastase, the “casein digestion by resin-immobilized protease, RFU (520 nm) over time” value [1] was “rises from 0 to about 107000 RFU at 60 min and about 150000 RFU at 120 min; Control-Resin (no protease) stays at or slightly below 0”, the “casein digestion … RFU over time” value [1] was “rises from 0 to about 40000 RFU at 60 min and about 95000 RFU at 120 min; highest curve; control resin stays at about 0” and the “casein digestion by resin-immobilized protease, fluorescence (RFU) at 5 and 60 min” value [1] was “bar at 5 min about 1.5x10^7 RFU, bar at 60 min about 4.3x10^7 RFU; signal grows with time; no control bar drawn”. The “casein digestion, fluorescence (RFU) of Bodipy-labelled casein after 1 h against protease concentration in solution” value [1] was “near 0 at about 0.006 ug/ml, rises steadily to about 8.5x10^7 RFU at 100 ug/ml on a log axis; still rising, no upper plateau; highest of the three curves”, the “casein-digestion activity, immobilized protease, fluorescence” value [1] was “exhibited casein-digestion activity at 5 minute and 60 minute incubation times” and the “casein-digestion activity, immobilized protease, fluorescence (FIG. 2B)” value [1] was “exhibited casein-digestion activity at 60 minute and 120 minute incubation times”. The “casein-digestion activity, protease in solution, fluorescence” value [1] was “exhibited casein-digestion activity having linear reaction kinetics up to approximately 6 µg/ml of each protease”, the % digestion at 0 min [2] was 0% and the % digestion at 1 min [2] was 28%. The % digestion at 5 min [2] was 50%, the % digestion at 60 min [2] was 81% and the “digestion on immobilized protease column (FIGS. 3B, 3C, 3E, 3F and Table 2)” value (“digestion … (FIGS. 3B, 3C, 3E, 3F and Table 2)” for short) [2] was “rapidly degraded”. The “digestion on immobilized protease column, SDS-PAGE silver stain (FIG. 3A)” value [3] was “rapidly degraded”, the “loss of the Tau-441 (P301L) band on a silver-stained SDS-PAGE gel after incubation on the protease column” value [3] was “no band in the Elastase column lanes at 2, 10 and 20 min; the No protease column lanes show a strong band of equal strength at 2, 10 and 20 min, just above the second labelled marker” and the % digestion at 0 min [4] was 0%. For the same substance, the % digestion at 1 min [4] was 33%, the % digestion at 5 min [4] was 93% and the % digestion at 60 min [4] was 100%. The “digestion … (FIGS. 3B, 3C, 3E, 3F and Table 2)” value [4] was “rapidly degraded”, the % digestion at 0 min [5] was 0% and the % digestion at 1 min [5] was 71%. For the same substance, the “digestion on immobilized protease column (FIGS. 3D and 3G and Table 2)” value [5] was “rapidly degraded”.
With “kallikrein-6 (KLK6) activated by lysyl endopeptidase” the “cleavage of fluorogenic peptide substrate, immobilized protease, 30, 60, 120 min” value [6] was “exhibited protease activity at all time points tested”, the “cleavage of the fluorogenic peptide substrate by resin-immobilized protease, AMC fluorescence (RFU) over time” value [6] was “about 65000 RFU at 30 min, about 108000 at 60 min and about 215000 at 120 min, still rising; Control resin + ES014 stays at 0” and the “casein digestion … RFU over time” value [1] was “close to the control at 60 min (about 1000-2000 RFU), then about 19000 RFU at 120 min; control resin stays at about 0”. For the same substance, the “casein-digestion activity, immobilized protease, fluorescence” value [1] was “also exhibited casein-digestion activity at 120 minute incubation time”.
In the case of trypsin, the “casein digestion by resin-immobilized protease, RFU (520 nm) over time” value [1] is reported as “rises from 0 to about 46000 RFU at 60 min and about 58000 RFU at 120 min; Control-Resin (no protease) stays at or slightly below 0”, the “casein digestion … RFU over time” value [1] is reported as “rises from 0 to about 24000 RFU at 60 min and about 76000 RFU at 120 min; control resin stays at about 0” and the “casein digestion by resin-immobilized protease, fluorescence (RFU) at 5 and 60 min” value [1] is reported as “bar at 5 min about 1.0x10^7 RFU, bar at 60 min about 2.2x10^7 RFU; lowest of the three groups; no control bar drawn”. For the same substance, the “casein digestion, fluorescence (RFU) of Bodipy-labelled casein after 1 h against protease concentration in solution” value [1] was “near 0 up to about 0.2 ug/ml, rises slowly to about 1.4x10^7 RFU at 100 ug/ml; no upper plateau; lowest of the three curves”, the “casein-digestion activity, immobilized protease, fluorescence” value [1] was “exhibited casein-digestion activity at 5 minute and 60 minute incubation times” and the “casein-digestion activity, immobilized protease, fluorescence (FIG. 2B)” value [1] was “exhibited casein-digestion activity at 60 minute and 120 minute incubation times”. For the same substance, the “casein-digestion activity, protease in solution, fluorescence” value [1] was “exhibited casein-digestion activity having linear reaction kinetics up to approximately 6 µg/ml of each protease”, the % digestion at 0 min [2] was 0% and the % digestion at 1 min [2] was 59%. For the same substance, the % digestion at 5 min [2] was 65%, the % digestion at 60 min [2] was 93% and the “digestion … (FIGS. 3B, 3C, 3E, 3F and Table 2)” value [2] was “rapidly degraded”. The “digestion on immobilized protease column, SDS-PAGE silver stain (FIG. 3A)” value [3] was “rapidly degraded”, the “loss of the Tau-441 (P301L) band on a silver-stained SDS-PAGE gel after incubation on the protease column” value [3] was “no band in the Trypsin column lanes at 2, 10 and 20 min; the No protease column lanes show a strong band of equal strength at 2, 10 and 20 min” and the % digestion at 0 min [4] was 0%. For the same substance, the % digestion at 1 min [4] was 70%, the % digestion at 5 min [4] was 100% and the % digestion at 60 min [4] was 100%. The “digestion … (FIGS. 3B, 3C, 3E, 3F and Table 2)” value [4] was “rapidly degraded”, the % digestion at 0 min [5] was 0% and the % digestion at 1 min [5] was 90%. For the same substance, the % digestion at 5 min [5] was 100%, the % digestion at 60 min [5] was 100% and the “digestion on immobilized protease column (FIGS. 3D and 3G and Table 2)” value [5] was “rapidly degraded”.
